In doi:10.1101/2022.01.18.476780 one finds binding result and Kd data, which are given here for 8 molecules.

The target in series [1] is T1, Sox2 HMG DBD WT (human, UniProt P48431 39-118). The experiment in a line: NMR.
The target of series [2] is T1, Sox2 HMG DBD WT. The experiment in a line: EMSA.
Series [3] has as its target Oct4 DBD (POUS-linker-POUHD) (UniProt Q01860 133-296). The experiment in a line: EMSA. A general note: A gel shift assay detects complexes by their altered migration in electrophoresis.
In series [4] the target is T1, Sox2 HMG DBD WT. The experiment in a line: NMR. The source holds these as a separate data set.
The target of the next series is Sox2 HMG Y72A (human, UniProt P48431 39-118, Y108A). Put plainly: NMR.
Sox2 HMG Y72A, sequence (P48431 39-118 Y108A): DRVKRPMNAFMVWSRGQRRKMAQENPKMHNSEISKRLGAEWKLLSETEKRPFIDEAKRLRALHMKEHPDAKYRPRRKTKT

Where two headings read alike, the source gives them in different places.

Oct4 DBD (POUS-linker-POUHD), sequence (Q01860 133-296): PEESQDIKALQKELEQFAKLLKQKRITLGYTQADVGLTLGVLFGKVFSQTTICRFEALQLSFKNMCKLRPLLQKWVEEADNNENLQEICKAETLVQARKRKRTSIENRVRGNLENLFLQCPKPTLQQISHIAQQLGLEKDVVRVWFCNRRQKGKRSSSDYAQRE
T1 sequence (P48431 39-118): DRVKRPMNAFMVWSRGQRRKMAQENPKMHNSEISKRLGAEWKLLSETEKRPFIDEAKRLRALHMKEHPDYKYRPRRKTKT

B1: DNA 27F (dsDNA)
DNA 1: TGGAGAATCCCGGTGCCGAGGCCGCTCAATTGGTCGTAGACAGCTCTAGCACCGCTTAAACGCACGTACGCGCTGTCCCCCGCGTTATTAGCATCCAAACAAAGACTCCCTAGTCTCCAGGCACGTGTGGTTACGAGGCTATCGT
DNA 2: ACGATAGCCTCGTAACCACACGTGCCTGGAGACTAGGGAGTCTTTGTTTGGATGCTAATAACGCGGGGGACAGCGCGTACGTGCGTTTAAGCGGTGCTAGAGCTGTCTACGACCAATTGAGCGGCCTCGGCACCGGGATTCTCCA
In the case of B1, the binding result with Sox2 HMG DBD WT [1] is on record as “binds”.

B2: DNA 62N (dsDNA)
DNA 1: TGGAGAATCCCGGTGCCGAGGCCGCTCAATTGGTCGTAGACAGCTCTAGCACCGCTTAAACGCACGTACGCGCTGTCCCCCGCGTTTTAACCGCCAAGGGGATTACTCCCTAGTCTCCAGGCACTTTTGCATTACAATGTATCGT
DNA 2: ACGATACATTGTAATGCAAAAGTGCCTGGAGACTAGGGAGTAATCCCCTTGGCGGTTAAAACGCGGGGGACAGCGCGTACGTGCGTTTAAGCGGTGCTAGAGCTGTCTACGACCAATTGAGCGGCCTCGGCACCGGGATTCTCCA
As for B2, binding with Sox2 HMG DBD WT [2] was put at a Kd of 2.3 ± 0.3 nM.

B3: DNA 54RN (dsDNA)
DNA 1: TGGAGAATCCCGGTGCCGAGGCCGCTCAATTGGTCGTAGACAGCTCTAGCACCGCTTAAACGCACGTACGCGCTGTCCCCCGCGTTTTAACCGCCAAGGGGATTACTCCCTAGTCTCCAGGCCATTGTAATGCAAAAGCTATCGT
DNA 2: ACGATAGCTTTTGCATTACAATGGCCTGGAGACTAGGGAGTAATCCCCTTGGCGGTTAAAACGCGGGGGACAGCGCGTACGTGCGTTTAAGCGGTGCTAGAGCTGTCTACGACCAATTGAGCGGCCTCGGCACCGGGATTCTCCA
For B3, the Kd (usually the equilibrium constant for the complex coming apart) in series [3] is 38 ± 4 nM; with Sox2 HMG DBD WT [2] it was 3 ± 0.4 nM.

B4: sDNAF (dsDNA)
DNA 1: GACTCTTTGTTTGGC
DNA 2: GCCAAACAAAGAGTC
As to B4, the binding result in the series with Sox2 HMG DBD WT [4] and with Sox2 HMG Y72A was “binds” each time.

B5: DNA 54RF (dsDNA)
DNA 1: TGGAGAATCCCGGTGCCGAGGCCGCTCAATTGGTCGTAGACAGCTCTAGCACCGCTTAAACGCACGTACGCGCTGTCCCCCGCGTTTTAACCGCCAAGGGGATTACTCCCTAGTCTCCAGGCCTTTGTTTGGATGCTAATATCGT
DNA 2: ACGATATTAGCATCCAAACAAAGGCCTGGAGACTAGGGAGTAATCCCCTTGGCGGTTAAAACGCGGGGGACAGCGCGTACGTGCGTTTAAGCGGTGCTAGAGCTGTCTACGACCAATTGAGCGGCCTCGGCACCGGGATTCTCCA
Turning to B5, the figures for the Kd (in series [3]; with Sox2 HMG DBD WT [2]) were 32 ± 3 nM and 1.1 ± 0.2 nM, respectively.

B6: DNA 2RN (dsDNA)
DNA 1: TGGAGAATCCCGGTGCCGAGGCCGCTCAATTGGTCGTAGACAGCTCTAGCACCGCTTAAACGCACGTACGCATTGTAATGCAAAATTTAACCGCCAAGGGGATTACTCCCTAGTCTCCAGGCACGTGTGGTTACGAGGCTATCGT
DNA 2: ACGATAGCCTCGTAACCACACGTGCCTGGAGACTAGGGAGTAATCCCCTTGGCGGTTAAATTTTGCATTACAATGCGTACGTGCGTTTAAGCGGTGCTAGAGCTGTCTACGACCAATTGAGCGGCCTCGGCACCGGGATTCTCCA
On to B6, for which, in the series with Sox2 HMG DBD WT [2], binding was characterised by a dissociation constant (Kd) of 3.7 ± 0.5 nM.

B7: DNA 601* (dsDNA)
DNA 1: TGGAGAATCCCGGTGCCGAGGCCGCTCAATTGGTCGTAGACAGCTCTAGCACCGCTTAAACGCACGTACGCGCTGTCCCCCGCGTTTTAACCGCCAAGGGGATTACTCCCTAGTCTCCAGGCACGTGTGGTTACGAGGCTATCGT
DNA 2: ACGATAGCCTCGTAACCACACGTGCCTGGAGACTAGGGAGTAATCCCCTTGGCGGTTAAAACGCGGGGGACAGCGCGTACGTGCGTTTAAGCGGTGCTAGAGCTGTCTACGACCAATTGAGCGGCCTCGGCACCGGGATTCTCCA
B7: the Kd was 160 ± 20 nM in series [3] and 8 ± 0.7 nM with Sox2 HMG DBD WT [2].

B8: DNA 62F (dsDNA)
DNA 1: TGGAGAATCCCGGTGCCGAGGCCGCTCAATTGGTCGTAGACAGCTCTAGCACCGCTTAAACGCACGTACGCGCTGTCCCCCGCGTTTTAACCGCCAAGGGGATTACTCCCTAGTCTCCAGGATTAGCATCCAAACAAAGTATCGT
DNA 2: ACGATACTTTGTTTGGATGCTAATCCTGGAGACTAGGGAGTAATCCCCTTGGCGGTTAAAACGCGGGGGACAGCGCGTACGTGCGTTTAAGCGGTGCTAGAGCTGTCTACGACCAATTGAGCGGCCTCGGCACCGGGATTCTCCA
In the series with Sox2 HMG DBD WT [2], B8 gave a Kd of 2.1 ± 0.2 nM.
